Results from patent US8722856B2, “Anti-MUC1 antibody” (National University Corporation Hokkaido University, priority 2008, dated 2014).

Tests used:
[1] = target: T1, Biotin-2,3-ST(DT*R)-20 (Compound No. 16) (Homo sapiens, UniProt P15941); experiment: Hybridoma screening ELISA (selection of MUC1 antibody); assay type: binding; details: hybridoma culture supernatant
T1 construct: Synthesis of MUC1 Tn20-mer Glycopeptide; made in house; host or cells: chemical solid-phase synthesis with enzymatic sialylation
T1 sequence (P15941 136-155): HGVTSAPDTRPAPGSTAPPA
Description: Ten days after cell fusion, screening of a specific antibody-producing cell was performed. ELISA was used in screening is as follows. To each well of a 384-well microtiter plate (manufactured by Nunc) 35 μl of a Tris buffer (50 mM Tris-HCl, pH 7.5) containing 0.35 μg of an anti-mouse IgG antibody (manufactured by Shibayagi Co., Ltd.) was added to immobilize the antibody at 4° C. for 16 hours. After these wells were washed with 90 μl of a washing solution (physiological saline containing 0.01% Tween 20) once, 200 μl of BLOCK ACE (manufactured by Dainippon Sumitomo Pharma Co., Ltd.) was added, and this was allowed to stand at room temperature for 2 hours for blocking (an anti-mouse IgG antibody solid-phased plate). […] Then, after each well was washed with 90 μl of a washing solution three times, 25 μl of TMB+-Substrate-Chromogen (manufactured by DAKO) was added to develop a color at room temperature for 30 minutes, 25 μl of 0.05 M sulfuric acid was added to stop the reaction, and absorbance was measured at 450 nm. […] Using a mouse monoclonal antibody isotyping ELISA kit (manufactured by BD Bioscience), a subclass of the antibody was determined and, as a result, an isotype of 1B2 was IgG2a.

[2] = tested on: human breast cancer tissue; experiment: Immunological tissue staining; details: formalin-fixed, paraffin-embedded breast cancer tissue
Description: Immunological tissue staining of the 1B2 antibody to a piece of a human breast cancer tissue and a normal tissue around a breast cancer (BioCahin) which had been formalin-fixed and paraffin-embedded was implemented using the Vectastain elite ABC kit (manufactured by Vector Laboratories) and DAB (manufactured by Roche) according to the attached manual.

[3] = target: T2, 2,3ST6L(DT*R)-20 (Compound No. 7) (Homo sapiens, UniProt P15941); experiment: Sugar chain specificity, competitive ELISA against Biotin-Tn(DT*R)-100; assay type: binding; details: glycopeptide 2,3ST6L (Compound No. 7)
T2 construct: Synthesis of MUC1 Tn20-mer Glycopeptide; made in house; host or cells: chemical solid-phase synthesis (Compound 5), then enzymatic sugar extension
Description: (§1) Such specificity can be expressed by a difference in cross reactivity. The cross reactivity is obtained by a calculation equation of (IC50 for cancer-associated structure 2,3ST/IC50 for sugar chain structure to be compared)×100(%). As used herein, inclusion of specificity refers to a difference of 2 fold or more.
(§2) Ten days after cell fusion, screening of a specific antibody-producing cell was performed. ELISA was used in screening is as follows. To each well of a 384-well microtiter plate (manufactured by Nunc) 35 μl of a Tris buffer (50 mM Tris-HCl, pH 7.5) containing 0.35 μg of an anti-mouse IgG antibody (manufactured by Shibayagi Co., Ltd.) was added to immobilize the antibody at 4° C. for 16 hours. After these wells were washed with 90 μl of a washing solution (physiological saline containing 0.01% Tween 20) once, 200 μl of BLOCK ACE (manufactured by Dainippon Sumitomo Pharma Co., Ltd.) was added, and this was allowed to stand at room temperature for 2 hours for blocking (an anti-mouse IgG antibody solid-phased plate). After each well was washed with 90 μl of a washing solution once, 10 μl of a hybridoma culture supernatant, 10 μl of a buffer A (50 mM Tris buffer containing 0.5% bovine serum albumin, 0.01% Tween 80, 0.05% Proclin 150, and 0.15 M. NaCl, pH 7.4), and 10 μl of a buffer A containing 0.01 ng of Biotin-2,3-ST(DT*R)-20 (Compound No. 16 of Table 1) and 2 ng of Streptavidin-HRP (manufactured by PIERCE) were added to perform a reaction at 4° C. for 16 hours. Then, after each well was washed with 90 μl of a washing solution three times, 25 μl of TMB+-Substrate-Chromogen (manufactured by DAKO) was added to develop a color at room temperature for 30 minutes, 25 μl of 0.05 M sulfuric acid was added to stop the reaction, and absorbance was measured at 450 nm. […] Using a mouse monoclonal antibody isotyping ELISA kit (manufactured by BD Bioscience), a subclass of the antibody was determined and, as a result, an isotype of 1B2 was IgG2a.
(§3) Fifteen (15) μl of a buffer A containing a MUC1 antibody was added to an anti-mouse IgG antibody solid-phased plate and the reaction was allowed to proceed at room temperature for 3 hours. […] Then, after each well was washed with 90 μl of a washing solution three times, 15 μl of TMB+-Substrate-Chromogen (manufactured by DAKO) was added to develop a color at room temperature for 30 minutes, 15 μl of 0.05 M sulfuric acid was added to stop the reaction, and absorbance at 450 nm was measured.

[4] = target: T3, T(DT*R)-20 (Compound No. 1) (Homo sapiens, UniProt P15941); experiment: as above; assay type: binding; details: glycopeptide T (Compound No. 1)
T3 construct: Synthesis of MUC1 Tn20-mer Glycopeptide; made in house; host or cells: chemical solid-phase synthesis
Description: as §1, §2, §3

[5] = target: T4, dST(DT*R)-20 (Compound No. 11) (Homo sapiens, UniProt P15941); experiment: as above; assay type: binding; details: glycopeptide dST (Compound No. 11)
T4 construct: Synthesis of MUC1 Tn20-mer Glycopeptide; made in house; host or cells: chemical solid-phase synthesis with enzymatic sialylation
Description: as §1, §2, §3

[6] = target: T5, 2,3-ST6SL(DT*R)-20 (Compound No. 8) (Homo sapiens, UniProt P15941); experiment: as above; assay type: binding; details: glycopeptide 2,3ST6SL (Compound No. 8)
T5 construct: Synthesis of MUC1 Tn20-mer Glycopeptide; made in house; host or cells: chemical solid-phase synthesis (Compound 5), then enzymatic sugar extension
Description: as §1, §2, §3

[7] = target: T6, ST2-6(DT*R)-20 (Compound No. 10) (Homo sapiens, UniProt P15941); experiment: as above; assay type: binding; details: glycopeptide ST2-6 (Compound No. 10)
T6 construct: Synthesis of MUC1 Tn20-mer Glycopeptide; made in house; host or cells: chemical solid-phase synthesis
Description: as §1, §2, §3

[8] = target: T7, 2,3ST6G(DT*R)-20 (Compound No. 6) (Homo sapiens, UniProt P15941); experiment: as above; assay type: binding; details: glycopeptide 2,3ST6G (Compound No. 6)
T7 construct: Synthesis of MUC1 Tn20-mer Glycopeptide; made in house; host or cells: chemical solid-phase synthesis (Compound 5), then enzymatic sialylation
Description: as §1, §2, §3

[9] = target: T8, C6(DT*R)-20 (Compound No. 9) (Homo sapiens, UniProt P15941); experiment: as above; assay type: binding; details: glycopeptide C6 (Compound No. 9)
T8 construct: Synthesis of MUC1 Tn20-mer Glycopeptide; made in house; host or cells: chemical solid-phase synthesis
Description: as §1, §2, §3

[10] = target: T9, STn(DT*R)-20 (Compound No. 4) (Homo sapiens, UniProt P15941); experiment: as above; assay type: binding; details: glycopeptide STn (Compound No. 4)
T9 construct: Synthesis of MUC1 Tn20-mer Glycopeptide; made in house; host or cells: chemical solid-phase synthesis
Description: as §1, §2, §3

[11] = target: T10, Tn(DT*R)-20 (Compound No. 3) (Homo sapiens, UniProt P15941); experiment: as above; assay type: binding; details: glycopeptide Tn (Compound No. 3)
T10 construct: Synthesis of MUC1 Tn20-mer Glycopeptide; made in house; host or cells: chemical solid-phase synthesis
Description: as §1, §2, §3

[12] = target: T11, 2,3-ST(VT*S)-20 (Compound No. 12) (Homo sapiens, UniProt P15941); experiment: as above; assay type: binding; details: glycopeptide 2,3ST(VT*S) (Compound No. 12)
T11 construct: Synthesis of MUC1 Tn20-mer Glycopeptide; made in house; host or cells: chemical solid-phase synthesis with enzymatic sialylation
Description: as §1, §2, §3

[13] = target: T12, 40 (Compound No. 13), non-glycosylated (Homo sapiens, UniProt P15941); experiment: as above; assay type: binding; details: Non-glycosylated peptide (Compound No. 13)
T12 construct: made in house; host or cells: chemical solid-phase synthesis
T12 sequence (P15941 136-175): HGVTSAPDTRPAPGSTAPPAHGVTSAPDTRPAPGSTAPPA
Description: as §1, §2, §3

[14] = target: T13, 2,3-ST(DT*R)-20 (Compound No. 2) (Homo sapiens, UniProt P15941); experiment: as above; assay type: binding; details: glycopeptide 2,3-ST (Compound No. 2), reference = 100%
T13 construct: Synthesis of MUC1 Tn20-mer Glycopeptide; made in house; host or cells: chemical solid-phase synthesis, then enzymatic sialylation
Description: as §1, §2, §3

affinity for 2,3-ST(DT*R)-20 in screening [1]: strong affinity | Cross reactivity letting 2,3-ST to be 100% [3]: 0.063% | Cross reactivity letting 2,3-ST to be 100% [4]: 96% | Cross reactivity letting 2,3-ST to be 100% [5]: 3.0% | Cross reactivity letting 2,3-ST to be 100% [6]: 0.064% | Cross reactivity letting 2,3-ST to be 100% [7]: 0.15% | Cross reactivity letting 2,3-ST to be 100% [8]: 0.061% | Cross reactivity letting 2,3-ST to be 100% [9]: 0.75% | Cross reactivity letting 2,3-ST to be 100% [10]: 0.36% | Cross reactivity letting 2,3-ST to be 100% [11]: 81% | Cross reactivity letting 2,3-ST to be 100% [12]: <0.030% | Cross reactivity letting 2,3-ST to be 100% [13]: 0.13% | Cross reactivity letting 2,3-ST to be 100% [14]: 100%
B1: 1B2: mouse monoclonal anti-MUC1 antibody, isotype IgG2a, clone from immunization with 2,3-ST(DT*R)-20 conjugated to BSA (antibody, V domains shown)
VH: MEWIWIFLFILSGTAGVQSQVQLQQSGAELARPGASVKLSCKASGYTFTNYGLSWVKQRTGQGLEWIGENHPGSGIIYHNEKFRGKATLTADKSSSTAYVQLSSLTSEDSAVYFCARSSGTRGFAYWGQGTLVTVSA
VL: MKLPVRLLVLMFWIPASSSDVLMTQTPLSLPVSLGDQASISCRSSQSIVHSNGNTYLEWYLQKPGQSPKLLIYKVSNRFSGVPDRFSGSGSGTDFTLKISRVEAEDLGVYYCFQGSHGPWTFGGGTKLEIKRA
modifications: Antibody 1B2 VH sequence; Antibody 1B2 VL sequence
stained image [2]: recognized
